Assay [1] concerns the target T1, OX40 on T cells (primary naive CD4+ T cells; Jurkat/OX40 reporter cells) (UniProt P43489 29-277, limits assumed).
T1 sequence (looked up): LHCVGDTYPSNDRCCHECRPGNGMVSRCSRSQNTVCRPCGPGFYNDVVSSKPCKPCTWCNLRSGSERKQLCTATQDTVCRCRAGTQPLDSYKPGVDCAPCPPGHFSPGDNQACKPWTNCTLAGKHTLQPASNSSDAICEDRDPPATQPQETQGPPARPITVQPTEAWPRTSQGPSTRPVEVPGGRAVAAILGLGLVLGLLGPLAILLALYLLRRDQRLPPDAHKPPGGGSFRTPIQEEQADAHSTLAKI
The experiment in a line: cell-based or functional assay.

In assay [2] the target is T2, OX40: 127-214-Fc (human).
T2 construct: Immobilized on the BLI sensor
T2 sequence (chain, as listed by the source): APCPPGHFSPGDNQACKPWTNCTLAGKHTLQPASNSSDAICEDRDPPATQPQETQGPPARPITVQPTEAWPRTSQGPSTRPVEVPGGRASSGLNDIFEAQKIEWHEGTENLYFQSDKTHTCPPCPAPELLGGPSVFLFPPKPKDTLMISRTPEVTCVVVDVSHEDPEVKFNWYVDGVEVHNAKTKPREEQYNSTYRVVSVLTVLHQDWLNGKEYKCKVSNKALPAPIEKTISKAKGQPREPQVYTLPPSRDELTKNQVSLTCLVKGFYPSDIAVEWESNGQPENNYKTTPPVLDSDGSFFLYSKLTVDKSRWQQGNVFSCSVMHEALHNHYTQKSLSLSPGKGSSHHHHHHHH
Kind of assay: BLI, OX40-Fc truncation immobilized on sensor.

Assay [3] deals with T3, OX40: 108-214-Fc (human).
T3 construct: Immobilized on the BLI sensor
T3 sequence (chain, as listed by the source): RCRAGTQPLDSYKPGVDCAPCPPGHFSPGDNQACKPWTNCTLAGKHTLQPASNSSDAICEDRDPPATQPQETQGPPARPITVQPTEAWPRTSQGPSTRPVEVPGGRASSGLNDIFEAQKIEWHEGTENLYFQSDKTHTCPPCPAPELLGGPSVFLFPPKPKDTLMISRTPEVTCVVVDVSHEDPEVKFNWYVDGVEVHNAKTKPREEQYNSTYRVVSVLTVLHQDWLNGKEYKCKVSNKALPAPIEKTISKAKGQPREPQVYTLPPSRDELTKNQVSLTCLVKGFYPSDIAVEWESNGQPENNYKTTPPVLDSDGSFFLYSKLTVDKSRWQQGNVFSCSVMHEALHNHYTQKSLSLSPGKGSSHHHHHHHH
The experiment in a line: BLI, OX40-Fc fragment immobilized on sensor. (BLI is a label-free optical method that tracks binding on a fibre tip over time.)

The target in assay [4] is T4, OX40: 66-214-Fc (human).
T4 construct: Immobilized on the BLI sensor; also called first truncation
T4 sequence (chain, as listed by the source): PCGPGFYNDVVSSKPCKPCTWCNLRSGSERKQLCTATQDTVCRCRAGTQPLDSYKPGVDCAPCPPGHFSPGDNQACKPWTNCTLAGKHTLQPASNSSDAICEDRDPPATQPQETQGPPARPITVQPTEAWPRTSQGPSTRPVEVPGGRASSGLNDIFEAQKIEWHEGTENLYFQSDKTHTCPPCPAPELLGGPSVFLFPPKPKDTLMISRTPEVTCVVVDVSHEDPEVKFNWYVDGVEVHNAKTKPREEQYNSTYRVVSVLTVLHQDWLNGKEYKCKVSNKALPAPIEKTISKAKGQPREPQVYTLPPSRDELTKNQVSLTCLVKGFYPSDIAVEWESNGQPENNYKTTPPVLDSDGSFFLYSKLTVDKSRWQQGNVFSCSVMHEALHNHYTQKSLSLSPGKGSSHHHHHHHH
Kind of assay: BLI, OX40-Fc fragment immobilized on sensor.

Data on 7 molecules can be found in patent US20210363265A1 (INVENRA, published 2021).

Where a chain is given by its changes, count along the chain named.

B1: OX40:24-24×11 (bispecific antibody)
chain 1: not shown
chain 2: EVQLVESGGGLVQPGGSLRLSCAASGFTFLSYYIHWVRQAPGKGLEWVAYIDPYSGGTDYADSVKGRFTISADTSKNTAYLQMNSLRAEDTAVYYCARVGLSFYAQEPVLDYWGQGTLVTVSSASPREPQVYTDPPSRDELTKNQVSLTCLVKGFYPSDIAVEWESNGQPENNYKTTPPVLDSDGSFFLYSKLTVDKSRWQQGNVFSCSVMHEALHNHYTQKSLSLSGEC
chain 3: DIQMTQSPSSLSASVGDRVTITCRASQSVSSAVAWYQQKPGKAPKLLIYSASSLYSGVPSRFSGSRSGTDFTLTISSLQPEDFATYYCQQYTSHPGTFGQGTKVEIKRTVAAPSVFIFPPSDEQLKSGTASVVCLLNNFYPREAKVQWKVDNALQSGNSQESVTEQDSKDSTYSLSSTLTLSKADYEKHKVYACEVTHQGLSSPVTKSFNRGECDKTHTCPPCPAPELLGGPSVFLFPPKPKDTLMISRTPEVTCVVVDVSHEDPEVKFNWYVDGVEVHNAKTKPREEQYNSTYRVVSVLTVLHQDWLNGKEYKCKVSNKALPAPIEKTISKAKGQPREPQVCTLPPSREEMTKNQVSLSCAVKGFYPSDIAVEWESNGQPENNYKTTPPVLDSDGSFFLVSKLTVDKSRWQQGNVFSCSVMHEALHNHYTQKSLSLSPGK
chain 4: EVQLVESGGGLVQPGGSLRLSCAASGFTFSSYVIHWVRQAPGKGLEWVAYIFPYGGTTYYADSVKGRFTISADTSKNTAYLQMNSLRAEDTAVYYCARGYYYVSDRVMDYWGQGTLVTVSSASTKGPSVFPLAPSSKSTSGGTAALGCLVKDYFPEPVTVSWNSGALTSGVHTFPAVLQSSGLYSLSSVVTVPSSSLGTQTYICNVNHKPSNTKVDKKVEPPKSC
As to B1, the “antibody concentration at peak T cell proliferation” value (“antibody concentration” below) in assay [1] came to 10 nM.

B2: OX40:24-24(WEE)×11 (bispecific antibody)
chain 1: not shown
chain 2: B1 chain 2
chain 3: B1 chain 3
chain 4: B1 chain 4
In the case of B2, in assay [1], the “antibody concentration” value was 10 nM.

B3: OX40:24(WEE)-11×11 (bispecific antibody)
chain 1: not shown
chain 2: B1 chain 4
chain 3: B1 chain 3
chain 4: B1 chain 2
Consider B3, for which the “antibody concentration” value in assay [1] was less than 10 nM.

B4: OX40:24-11×11 (bispecific antibody)
chain 1: not shown
chain 2: B1 chain 4
chain 3: B1 chain 3
chain 4: B1 chain 2
Consider B4, for which, in assay [1], the “antibody concentration” value was less than 10 nM.

B5: Tavolixizumab (IgG1-kappa) (antibody, V domains shown)
VH: QVQLQESGPGLVKPSQTLSLTCAVYGGSFSSGYWNWIRKHPGKGLEYIGYISYNGITYHNPSLKSRITINRDTSKNQYSLQLNSVTPEDTAVYYCARYKYDYDGGHAMDYWGQGTLVTVSS
VL: DIQMTQSPSSLSASVGDRVTITCRASQDISNYLNWYQQKPGKAPKLLIYYTSKLHSGVPSRFSGSGSGTDYTLTISSLQPEDFATYYCQQGSALPWTFGQGTKVEIKR
For B5, the binding result is given as “no binding” in assay [2] and “binds” in assay [3].

B6: Pogalizumab (IgG1-kappa) (antibody, V domains shown)
VH: EVQLVQSGAEVKKPGASVKVSCKASGYTFTDSYMSWVRQAPGQGLEWIGDMYPDNGDSSYNQKFRERVTITRDTSTSTAYLELSSLRSEDTAVYYCVLAPRWYFSVWGQGTLVTVSS
VL: B5 VL with K53R, H55R, Y71F, S92H, A93T, W96P
notes: also called Pagolizumab
In the case of B6, the binding result in assay [2] is reported as “no binding”; in assay [3], “binds”.

B7: GSK3174998 (antibody, human IgG1, kappa, V domains shown)
VH: EVKLEESGGGLVQPGGSMKLSCAASGFTFSDAWMDWVRQSPEKGLEWVAEIRSKANNHATYYAESVNGRFTISRDDSKSSVYLQMNSLRAEDTGIYYCTWGEVFYFDYWGQGTTLTVSS
VL: DIQMTQSPSSLSASLGGKVTITCKSSQDINKYIAWYQHKPGKGPRLLIHYTSTLQPGIPSRFSGSGSGRDYSFSISNLEPEDIATYYCLQYDNLLTFGAGTKLELKR
notes: also called Clinical mAB; clinical
For the molecule B7, the binding result in assay [4] is “binds”.
